For series [1], the target named is T1, MukB^KRK (K1114E, R1122E and K1125E) (Escherichia coli, UniProt P22523 1-1486, K1114E | R1122E | K1125E).
T1 construct: E. coli MukB, triple charge-reversed mutant; source: E. coli FL01 (mukB 3xFLAG C3013I), purified (TALON, HiTrap Heparin, Superdex 200); not shown: His tag, C-terminal, kept
T1 sequence (looked up): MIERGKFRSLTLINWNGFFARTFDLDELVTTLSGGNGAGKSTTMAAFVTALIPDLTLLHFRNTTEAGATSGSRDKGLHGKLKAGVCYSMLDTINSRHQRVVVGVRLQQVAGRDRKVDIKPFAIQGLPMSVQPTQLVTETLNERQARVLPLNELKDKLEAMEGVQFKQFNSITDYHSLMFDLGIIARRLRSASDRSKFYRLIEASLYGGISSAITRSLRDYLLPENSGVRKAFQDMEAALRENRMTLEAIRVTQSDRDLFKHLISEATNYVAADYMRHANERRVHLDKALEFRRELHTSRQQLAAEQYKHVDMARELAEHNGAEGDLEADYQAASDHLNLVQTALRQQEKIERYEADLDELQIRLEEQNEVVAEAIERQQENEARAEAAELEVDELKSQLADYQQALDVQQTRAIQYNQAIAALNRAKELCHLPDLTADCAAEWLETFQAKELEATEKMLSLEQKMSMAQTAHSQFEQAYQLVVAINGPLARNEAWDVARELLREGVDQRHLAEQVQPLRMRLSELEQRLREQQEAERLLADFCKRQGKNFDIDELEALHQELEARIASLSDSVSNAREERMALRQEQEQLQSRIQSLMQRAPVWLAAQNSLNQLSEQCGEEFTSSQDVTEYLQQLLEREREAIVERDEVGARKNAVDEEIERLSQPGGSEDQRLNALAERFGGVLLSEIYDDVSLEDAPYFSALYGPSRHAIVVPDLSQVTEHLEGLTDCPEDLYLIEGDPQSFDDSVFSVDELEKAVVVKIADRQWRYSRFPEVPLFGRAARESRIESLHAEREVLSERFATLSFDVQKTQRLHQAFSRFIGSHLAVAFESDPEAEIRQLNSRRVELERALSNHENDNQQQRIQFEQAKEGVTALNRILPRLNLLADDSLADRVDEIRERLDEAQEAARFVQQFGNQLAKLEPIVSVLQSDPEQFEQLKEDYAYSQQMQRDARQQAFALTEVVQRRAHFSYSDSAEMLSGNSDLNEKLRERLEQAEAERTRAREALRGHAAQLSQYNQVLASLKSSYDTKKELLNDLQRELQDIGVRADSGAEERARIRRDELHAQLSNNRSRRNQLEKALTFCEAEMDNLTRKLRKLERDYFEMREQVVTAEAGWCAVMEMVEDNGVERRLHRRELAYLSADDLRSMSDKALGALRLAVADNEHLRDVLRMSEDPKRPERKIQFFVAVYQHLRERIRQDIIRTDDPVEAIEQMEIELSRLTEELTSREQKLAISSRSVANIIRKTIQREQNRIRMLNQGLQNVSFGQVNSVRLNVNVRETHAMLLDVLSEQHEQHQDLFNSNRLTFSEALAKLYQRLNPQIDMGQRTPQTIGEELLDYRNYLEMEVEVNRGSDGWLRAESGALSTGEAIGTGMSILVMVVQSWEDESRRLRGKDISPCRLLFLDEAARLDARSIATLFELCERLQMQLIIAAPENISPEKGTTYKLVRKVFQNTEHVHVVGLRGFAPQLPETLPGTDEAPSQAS
The series can be described thus: native gel or EMSA; BN-PAGE; MukB or MukB^HN (0-4.5 μM) with MukF (1.5 μM), MukE (3 μM) and AcpP as indicated or none; 1 mM DTT, 1 mM MgCl2, 30 min at 22 °C; 3-12% native Bis-Tris gels; AMPPNP in some samples. Particulars: both partners purified. (In general: A gel shift assay detects complexes by their altered migration in electrophoresis.)

Series [2] deals with the molecule itself. The series can be described thus: native MS; mixtures of MukB, MukE, MukF and AcpP at various concentrations of MukB; 200 mM ammonium acetate pH 8.0.

B1: MukE (MukE-His) (natural protein, Escherichia coli, UniProt P22524 1-234, looked up)
chain: MSSTNIEQVMPVKLAQALANPLFPALDSALRSGRHIGLDELDNHAFLMDFQEYLEEFYARYNVELIRAPEGFFYLRPRSTTLIPRSVLSELDMMVGKILCYLYLSPERLANEGIFTQQELYDELLTLADEAKLLKLVNNRSTGSDVDRQKLQEKVRSSLNRLRRLGMVWFMGHDSSKFRITESVFRFGADVRAGDDPREAQRRLIRDGEAMPIENHLQLNDETEENQPDSGEEE
notes: MukE, the KITE protein of Escherichia coli MukBEF; The end of the tag is read from the printed name 'MukE-His'; also called KITE protein MukE; source: E. coli C3013I (NEB), pET vector, purified (TALON, HiTrap DEAE FF, Superdex 200)
For the molecule B1, the binding result in series [1] is listed as “binds”.

B2: MukF (His-MukF) (natural protein, Escherichia coli, UniProt P60293 1-440, looked up)
chain: MSEFSQTVPELVAWARKNDFSISLPVDRLSFLLAVATLNGERLDGEMSEGELVDAFRHVSDAFEQTSETIGVRANNAINDMVRQRLLNRFTSEQAEGNAIYRLTPLGIGITDYYIRQREFSTLRLSMQLSIVAGELKRAADAAEEGGDEFHWHRNVYAPLKYSVAEIFDSIDLTQRLMDEQQQQVKDDIAQLLNKDWRAAISSCELLLSETSGTLRELQDTLEAAGDKLQANLLRIQDATMTHDDLHFVDRLVFDLQSKLDRIISWGQQSIDLWIGYDRHVHKFIRTAIDMDKNRVFAQRLRQSVQTYFDEPWALTYANADRLLDMRDEEMALRDEEVTGELPEDLEYEEFNEIREQLAAIIEEQLAVYKTRQVPLDLGLVVREYLSQYPRARHFDVARIVIDQAVRLGVAQADFTGLPAKWQPINDYGAKVQAHVIDKY
notes: MukF, the kleisin of Escherichia coli MukBEF; The end of the tag is read from the printed name 'His-MukF'; also called kleisin MukF; source: E. coli C3013I (NEB), pET vector, purified (TALON, HiTrap DEAE FF, Superdex 200)
For the molecule B2, the binding result in series [2] and in series [1] was “binds” throughout.

These data come from PMC8602292, “Acyl carrier protein promotes MukBEF action in Escherichia coli chromosome organization-segregation” (Nature Communications, 2021).
